The values that follow come from the supplement of paper PMC9233669.

This sample holds only a part of the variants without activity.

For one data set, the system named is biotinyl-Phe-oxazolone. Put plainly: self-aminoacylation, catalytic enhancement (BFO) (fold over background); higher = more active; k-Seq, kA / k0A0; sequences stand for … in GGGAAUGGAUCCACAUCUACGAAUUC…UUCACUGCAGACUUGACGAAGCUG
An outline of the steps: (§1)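 Mutagenized RNA pools with a 21-nt variable region (0.43 μM) were reacted with each biotinyl-aminoacyl-oxazolone at 2–1250 μM for 90 minutes at room temperature, in 50 μL HEPES/NaCl/KCl/MgCl2/CaCl2 buffer containing 5% acetonitrile at pH 6.9–7.0. RNA captured on streptavidin was quantified by triplicate qPCR and by Illumina sequencing. The fraction reacted for each sequence was fit to a pseudo-first-order model with bootstrapping, and catalytic enhancement is the median kA divided by the uncatalyzed rate, taken as the low-activity peak of a bimodal Gaussian fit.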
Take “GAGUUUGCUAAUCGUCGCAAG [Fam3.1 aminoacylation ribozyme variant]”: the self-aminoacylation worked out at 2.55.
As to “AAGUUGGCUAAUAGUCGCCAG [Fam3.1 aminoacylation ribozyme variant]”, the self-aminoacylation amounted to 2.1.
With “GUACAUCAAACAAUCGGUCUG [Fam1A.1 aminoacylation ribozyme variant]”, the self-aminoacylation was determined as 2.
“GAGUUUGCUAAUAGUCGCACG [Fam3.1 aminoacylation ribozyme variant]”: the self-aminoacylation worked out at 3.
Take “CAACUUCACACAAUCGGUCUG [Fam1A.1 aminoacylation ribozyme variant]”: the self-aminoacylation was found to be 3.02.
On to “CUACUGCAAACAAUCGGUGUG [Fam1A.1 aminoacylation ribozyme variant]”, for which the self-aminoacylation came out at 3.44.
The same measure, in the same setting: the result for “AAGUUUACGAAUAGUCGCAAG [Fam3.1 aminoacylation ribozyme variant]” reads 2.82; that for “AUUCACCUAGGUAAUCGAGUG [Fam2.2 aminoacylation ribozyme variant]”, 2.87.
In the case of “AAGGUUGCUAAUAGUCGCCAG [Fam3.1 aminoacylation ribozyme variant]”, the self-aminoacylation turned out to be 2.54.
As to “AUUCACCUAGGUCACCUGGUG [Fam2.2 aminoacylation ribozyme variant]”, the self-aminoacylation amounted to 8.5.
As to “AUUCGCCUAGGUCAUCGGUUG [Fam2.2 aminoacylation ribozyme variant]”, the self-aminoacylation was found to be 4.32.
As to “AAGUCUGCUAAUAGUCGCAAU [Fam3.1 aminoacylation ribozyme variant]”, the self-aminoacylation is 6.06.
On to “AAGUUAGCUAAUAGUCGCAAU [Fam3.1 aminoacylation ribozyme variant]”, for which the self-aminoacylation is 2.2.
As to “CUCCUUCAAACACUCGGUCUG [Fam1A.1 aminoacylation ribozyme variant]”, the self-aminoacylation amounted to 6.18.
Consider “AUGUUUGCUCAUAGUCGCAAG [Fam3.1 aminoacylation ribozyme variant]”, for which the self-aminoacylation was 2.41.
With “AUUACCCUGGUCAGCGAGUGC [Fam2.1 aminoacylation ribozyme variant]”, the self-aminoacylation worked out at 8.87.
As for “CUACUUCAAACAAUCGGCCCG [Fam1A.1 aminoacylation ribozyme variant]”, the self-aminoacylation came to 3.03.
For the sequence “GUACCUCAAACAAUCGGUCUG [Fam1A.1 aminoacylation ribozyme variant]”, the self-aminoacylation was found to be 2.42.
The same measure, in the same setting: the result for “CUACUUCAAACAAUCGGCCUU [Fam1A.1 aminoacylation ribozyme variant]” reads 2.48; that for “CUACUGCAAACAAGCGGUCUG [Fam1A.1 aminoacylation ribozyme variant]”, 5.58.
Consider “AAGUUUGCUAAUAGUCGCCUG [Fam3.1 aminoacylation ribozyme variant]”, for which the self-aminoacylation was found to be 7.8.
Take “AAGGUUGCUUAUAGUCGCAAG [Fam3.1 aminoacylation ribozyme variant]”: the self-aminoacylation is 2.7.
For the sequence “CUCCAUCAAACAAUCGGUCUG [Fam1A.1 aminoacylation ribozyme variant]”, the self-aminoacylation was determined as 2.14.
Take “GAGUUUGCUAAUAGCCGCAAG [Fam3.1 aminoacylation ribozyme variant]”: the self-aminoacylation amounted to 4.21.
“AAGUUUUCUAGUAGUCGCAAG [Fam3.1 aminoacylation ribozyme variant]”: the self-aminoacylation was found to be 2.53.
Turning to “AUUGACCUAGGUCAUCGGGUC [Fam2.2 aminoacylation ribozyme variant]”, the self-aminoacylation stood at 3.83.
In the case of “AAAUUUGCUAAUAGUCUCAAG [Fam3.1 aminoacylation ribozyme variant]”, the self-aminoacylation amounted to 2.03.
For “CUAUUUCAACCAAUCGGUCUG [Fam1A.1 aminoacylation ribozyme variant]”, the self-aminoacylation was determined as 2.27.
“AAGGUUACUAAUAGUCGCAAG [Fam3.1 aminoacylation ribozyme variant]”: the self-aminoacylation is 2.19.
For the sequence “AAAUUUGCUAAUAGUCGAAAG [Fam3.1 aminoacylation ribozyme variant]”, the self-aminoacylation worked out at 4.94.
With “AAGUUUGCGGAUAGUCGCAAG [Fam3.1 aminoacylation ribozyme variant]”, the self-aminoacylation was 2.73.
As for “AUUCACCUAGGUCGUCGGGUC [Fam2.2 aminoacylation ribozyme variant]”, the self-aminoacylation is 5.09.
Consider “CUACUUCAAACAAUCGCUCUG [Fam1A.1 aminoacylation ribozyme variant]”, for which the self-aminoacylation was 2.58.
The same measure, in the same setting: then “AAGUUGGCUAAUAGUCGCUAG [Fam3.1 aminoacylation ribozyme variant]”, with 2.22; and “AUAACCCUGGUCGUCGAGUGA [Fam2.1 aminoacylation ribozyme variant]”, with 2.78; and “AAGUUAGCUAAUAGUCGCACG [Fam3.1 aminoacylation ribozyme variant]”, with 2.06.
As for “AAGUUUUCUAAUAGUCUCAAG [Fam3.1 aminoacylation ribozyme variant]”, the self-aminoacylation was determined as 2.15.
Same read-out and setting: then “AUUCACCUAGGUCUUCGUGUG [Fam2.2 aminoacylation ribozyme variant]”, with 5.39; and “AAGUUCGCUAAUAGUCGAAAG [Fam3.1 aminoacylation ribozyme variant]”, with 4.18; and “AAGUUUACUAAUAGUUGCAAG [Fam3.1 aminoacylation ribozyme variant]”, with 2.19.
Turning to “AAGGUAGCUAAUAGUCGCAAG [Fam3.1 aminoacylation ribozyme variant]”, the self-aminoacylation was 3.35.
Still for that read-out and setting: the result for “AAGUUUGCUAAUAAUCGUAAG [Fam3.1 aminoacylation ribozyme variant]” reads 3.54.
Take “AUCUUUGCUAAUAGUCGCAAG [Fam3.1 aminoacylation ribozyme variant]”: the self-aminoacylation came out at 2.44.
As for “AAUUUUGCUAAUAGUCACAAG [Fam3.1 aminoacylation ribozyme variant]”, the self-aminoacylation is 3.77.
As for “AUGUUUGCUACUAGUCGCAAG [Fam3.1 aminoacylation ribozyme variant]”, the self-aminoacylation is 2.12.
As for “AUACUUCAAACAAUCUGUCUG [Fam1A.1 aminoacylation ribozyme variant]”, the self-aminoacylation is 2.2.
On the same count and under the same terms, then “AAGAUUGCUAAUAGUCACAAG [Fam3.1 aminoacylation ribozyme variant]”, with 2.63; and “AUGUUUGCUAAUAGUCGCAAU [Fam3.1 aminoacylation ribozyme variant]”, with 2.83.
In the case of “CGACUUCAAACAAUCGAUCUG [Fam1A.1 aminoacylation ribozyme variant]”, the self-aminoacylation worked out at 3.21.
For the sequence “AUUCUCCUAGGUCAUCGUGUG [Fam2.2 aminoacylation ribozyme variant]”, the self-aminoacylation amounted to 3.73.
Consider “AUACUUCAAACAAUCGGUCUA [Fam1A.1 aminoacylation ribozyme variant]”, for which the self-aminoacylation turned out to be 3.14.
Take “AAGUUUGUUAAAAGUCGCAAG [Fam3.1 aminoacylation ribozyme variant]”: the self-aminoacylation worked out at 2.4.
For “AAGUAUACUAAUAGUCGCAAG [Fam3.1 aminoacylation ribozyme variant]”, the self-aminoacylation amounted to 2.34.
For the sequence “CCACACAUCAAUCAAUCGGUC [Fam1B.1 aminoacylation ribozyme variant]”, the self-aminoacylation is 2.22.
On to “CUACUCCAAACAAUCGGUUUG [Fam1A.1 aminoacylation ribozyme variant]”, for which the self-aminoacylation came out at 2.1.
For the sequence “CCACUGCAAACAAUCGGUCUG [Fam1A.1 aminoacylation ribozyme variant]”, the self-aminoacylation came to 4.13.
Same read-out and setting: then “AUUCACCUACGUCAUCGGGUU [Fam2.2 aminoacylation ribozyme variant]”, with 2.52; and “AAGUUAGCUAAUAGUCACAAG [Fam3.1 aminoacylation ribozyme variant]”, with 3.83.
“AAGUUUGCUAAUAGUCGCAAA [Fam3.1 aminoacylation ribozyme variant]”: the self-aminoacylation turned out to be 2.2.
On the same count and under the same terms, then “CCACACUUCAAGCAAUCGAUC [Fam1B.1 aminoacylation ribozyme variant]”, with 2.02; and “CGACUGCAAACAAUCGGUCUG [Fam1A.1 aminoacylation ribozyme variant]”, with 6.2; and “GAGUUUGUUAAUAGUCGCAAG [Fam3.1 aminoacylation ribozyme variant]”, with 2.36.
Regarding “CUACUGCAAACAAUCGGUCCG [Fam1A.1 aminoacylation ribozyme variant]”, the self-aminoacylation worked out at 6.96.
On to “UCGUUUGCUAAUAGUCGCAAG [Fam3.1 aminoacylation ribozyme variant]”, for which the self-aminoacylation was 4.06.
Consider “AAGUUUGCUAAUUGUCGCAAU [Fam3.1 aminoacylation ribozyme variant]”, for which the self-aminoacylation came to 6.81.

A further data set has as its system biotinyl-Trp-oxazolone. Nature of the data set: self-aminoacylation, catalytic enhancement (BWO) (fold over background); higher = more active; k-Seq, kA / k0A0; sequences stand for … in GGGAAUGGAUCCACAUCUACGAAUUC…UUCACUGCAGACUUGACGAAGCUG
Put shortly:
as §1
On to “AAGAUUGAUAAUAGUCGCAAG [Fam3.1 aminoacylation ribozyme variant]”, for which the self-aminoacylation was 2.33.
For the sequence “AUUACCGUGGUCAUCGAGCGA [Fam2.1 aminoacylation ribozyme variant]”, the self-aminoacylation came to 2.2.
As for “GUUCACCUAGGUCAUCGGGAG [Fam2.2 aminoacylation ribozyme variant]”, the self-aminoacylation was 2.13.
As to “CUUCACCUAGGUCAUCGGGAG [Fam2.2 aminoacylation ribozyme variant]”, the self-aminoacylation amounted to 2.1.
Take “AUUACCCUGGUCAUGGAGUGG [Fam2.1 aminoacylation ribozyme variant]”: the self-aminoacylation was 2.54.
